Data from article PMC10844826 (iScience, 2024).

Assays:
[1] = biological target: GST-tagged Arabidopsis thaliana Rpn10 vWA domain (Arabidopsis thaliana) (UniProt P55034); assay: SPR
[2] = biological target: T1, GST-tagged Arabidopsis thaliana Rpn10 vWA domain (Arabidopsis thaliana, UniProt P55034 2-193); assay: SPR
T1 sequence: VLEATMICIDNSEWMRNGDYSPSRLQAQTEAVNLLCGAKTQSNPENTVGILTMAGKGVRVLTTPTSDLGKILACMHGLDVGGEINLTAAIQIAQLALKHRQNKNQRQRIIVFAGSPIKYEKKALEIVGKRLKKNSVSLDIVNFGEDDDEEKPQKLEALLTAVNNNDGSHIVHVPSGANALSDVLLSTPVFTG

[3] = biological target: T2, AtRpn10 vWA domain, GST removed, as in the purified complexes (Arabidopsis thaliana, UniProt P55034 2-193); assay: SEC-MALS
T2 sequence: T1 sequence

“onion yellows phytoplasma SAP05 (natural protein)” showed a Kd [1] of 398 nM.

B1: Aster Yellows witches'-broom phytoplasma SAP05 (33-135) (natural protein, UniProt Q2NK94 33-135, looked up)
chain: APNEEFVGDMRIVNVNLSNIDILKKHETFKKYFDFTLTGPRYNGNIAEFAMIWKIKNPPLNLLGVFFDDGTRDDEDDKYILEELKQIGNGAKNMYIFWQYEQK
In the case of B1, the Kd [2] is reported as 400 nM.

B2: AYWB_SAP05 (33-135), tag removed, as in the purified complex (natural protein, UniProt Q2NK94 33-135, looked up)
chain: B1 chain
B2 was tested, and the “stoichiometry N” value [3] was 1.
